Experimental data from the supplement of paper PMC10065799, “High-throughput profiling of sequence recognition by tyrosine kinases and SH2 domains using bacterial peptide display” (eLife, 2023).

system: AncSZ; test: phosphorylation enrichment, bacterial display (enrichment ratio); higher = better substrate or ligand; peptides without Tyr show the background
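Also: 11-residue human phosphosite peptides and single-mutation variants displayed on the E. coli surface, counted by deep sequencing, each peptide's frequency after selection divided by its frequency in the unselected input library; frequency after pTyr selection over input frequency; kinase dosed for 20-30% of maximal phosphorylation in three min.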

Row | Sequence | phosphorylation enrichment
1 | AFLGEYIPTVF [RAC2_Y32_P29L] | 1.31
2 | ESMLRYEVFGG [STOX1_Y607_YF] | 1.12
3 | QLQQAYQEAFE [YWHAZ_Y149_S145L] | 2.59
4 | RSFLSYYTSHV [NEFL_Y442_P440L] | 0.996
5 | CKLFQYFLDHL [ATRX_Y1849_YF] | 1.37
6 | MFNPMYALFRT [HUWE1_Y4078] | 0.946
7 | QMIETYFDFRL [NSMF_Y506] | 2.67
8 | KNKNRCKNILP [PTPN11_Y279_Y279C] | 0.765
9 | KNDSNYVVKGN [KIT_Y823] | 0.539
10 | VVRSLYEDLED [VHL_Y185_I180V] | 1.26
11 | EVKAQYEDIAQ [KRT1_Y358] | 1.22
12 | DRPASYLEKVR [KRT13_Y118_L115P] | 0.438
13 | YAFQLYDLDRD [CHP2_Y123] | 1.24
14 | TTANRYLKVSD [MYOM2_Y871] | 0.546
15 | NQNIGYKLGHR [KCNN3_Y268] | 0.402
16 | LEIETYRRLRD [KRT12_Y429_L433R] | 0.859
17 | CPEARYNRSPI [PTAR1_Y42] | 0.699

Row | Sequence | phosphorylation enrichment
18 | GAVGHYVLAER [HFE_Y342_M339V] | 0.865
19 | EKMWSYTKSAE [GRIA3_Y705_M706T] | 0.658
20 | SEDANYKRVSC [TTC3_Y1288] | 0.886
21 | GHNDVYILEHV [GRIN2A_Y1423_S1425L] | 0.861
22 | MTRDIYRASYY [ALK_Y1278_A1274T] | 0.725
23 | VDSIEYEVASQ [SLC7A7_Y7_T5I] | 1.22
24 | GEVLVYAEDPA [FLNA_Y319_V320A] | 1.21
25 | RARIRYAQEHD [NSD1_Y1987] | 1.12
26 | FQKDVYNIPPS [NEDD9_Y177_D178N_YF] | 0.613
27 | SFPHEYGSQEG [RBM10_Y48_R46H_YF] | 0.768
28 | LVVFEYMRHGD [NTRK1_Y591_M587V] | 0.875
29 | KNRDVSSSDFF [USP24_Y2134_Y2134S_YF] | 0.701
30 | GEETDYTPVWC [UROD_Y30] | 1.62
31 | YSDPSYVKQME [CDC5L_Y464] | 1.1
32 | NAGDYYDLYGG [PTPN11_Y63_T59A] | 5.5
33 | LPEVSYVKAID [GLRA1_Y307_K304E] | 0.207

biological target: EPHB1 (UniProt P54762); test: as above
Sequence (P54762 whole entry, looked up): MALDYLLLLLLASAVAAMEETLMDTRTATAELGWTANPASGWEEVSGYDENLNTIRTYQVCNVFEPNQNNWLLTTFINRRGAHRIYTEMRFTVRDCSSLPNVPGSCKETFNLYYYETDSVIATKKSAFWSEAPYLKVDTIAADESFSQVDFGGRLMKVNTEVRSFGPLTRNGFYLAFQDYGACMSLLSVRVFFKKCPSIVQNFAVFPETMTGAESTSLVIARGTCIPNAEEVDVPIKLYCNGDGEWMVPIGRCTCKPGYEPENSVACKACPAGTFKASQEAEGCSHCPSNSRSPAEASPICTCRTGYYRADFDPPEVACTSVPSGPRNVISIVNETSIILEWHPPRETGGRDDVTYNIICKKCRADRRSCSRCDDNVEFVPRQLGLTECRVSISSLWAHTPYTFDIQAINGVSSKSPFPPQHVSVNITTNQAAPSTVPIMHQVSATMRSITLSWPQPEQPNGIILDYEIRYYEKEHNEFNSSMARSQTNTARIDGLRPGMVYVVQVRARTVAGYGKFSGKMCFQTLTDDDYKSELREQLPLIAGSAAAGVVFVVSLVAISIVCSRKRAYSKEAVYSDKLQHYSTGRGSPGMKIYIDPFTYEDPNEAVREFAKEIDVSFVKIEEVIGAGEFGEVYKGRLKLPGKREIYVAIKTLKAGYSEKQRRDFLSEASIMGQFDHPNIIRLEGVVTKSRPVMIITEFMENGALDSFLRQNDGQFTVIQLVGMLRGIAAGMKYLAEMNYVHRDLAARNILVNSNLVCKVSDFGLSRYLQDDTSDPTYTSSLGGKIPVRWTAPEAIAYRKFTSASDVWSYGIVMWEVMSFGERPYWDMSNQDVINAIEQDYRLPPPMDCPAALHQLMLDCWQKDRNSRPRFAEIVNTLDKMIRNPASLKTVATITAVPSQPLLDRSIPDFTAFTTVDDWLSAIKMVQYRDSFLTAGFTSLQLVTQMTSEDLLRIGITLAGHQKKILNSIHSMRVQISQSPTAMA

Row | Sequence | phosphorylation enrichment
34 | AFLGEYIPTVF [RAC2_Y32_P29L] | 0.733
35 | ESMLRYEVFGG [STOX1_Y607_YF] | 0.631
36 | QLQQAYQEAFE [YWHAZ_Y149_S145L] | 1.43
37 | RSFLSYYTSHV [NEFL_Y442_P440L] | 0.998
38 | CKLFQYFLDHL [ATRX_Y1849_YF] | 0.693
39 | MFNPMYALFRT [HUWE1_Y4078] | 1.42
40 | QMIETYFDFRL [NSMF_Y506] | 3.62
41 | KNKNRCKNILP [PTPN11_Y279_Y279C] | 0.448
42 | KNDSNYVVKGN [KIT_Y823] | 0.303
43 | VVRSLYEDLED [VHL_Y185_I180V] | 0.711
44 | EVKAQYEDIAQ [KRT1_Y358] | 0.546
45 | DRPASYLEKVR [KRT13_Y118_L115P] | 0.307
46 | YAFQLYDLDRD [CHP2_Y123] | 1.69
47 | TTANRYLKVSD [MYOM2_Y871] | 0.38
48 | NQNIGYKLGHR [KCNN3_Y268] | 0.324
49 | LEIETYRRLRD [KRT12_Y429_L433R] | 0.533
50 | CPEARYNRSPI [PTAR1_Y42] | 0.485

Row | Sequence | phosphorylation enrichment
51 | GAVGHYVLAER [HFE_Y342_M339V] | 0.395
52 | EKMWSYTKSAE [GRIA3_Y705_M706T] | 0.426
53 | SEDANYKRVSC [TTC3_Y1288] | 0.558
54 | GHNDVYILEHV [GRIN2A_Y1423_S1425L] | 0.452
55 | MTRDIYRASYY [ALK_Y1278_A1274T] | 0.598
56 | VDSIEYEVASQ [SLC7A7_Y7_T5I] | 0.594
57 | GEVLVYAEDPA [FLNA_Y319_V320A] | 0.607
58 | RARIRYAQEHD [NSD1_Y1987] | 0.727
59 | FQKDVYNIPPS [NEDD9_Y177_D178N_YF] | 0.437
60 | SFPHEYGSQEG [RBM10_Y48_R46H_YF] | 0.485
61 | LVVFEYMRHGD [NTRK1_Y591_M587V] | 0.577
62 | KNRDVSSSDFF [USP24_Y2134_Y2134S_YF] | 0.444
63 | GEETDYTPVWC [UROD_Y30] | 0.587
64 | YSDPSYVKQME [CDC5L_Y464] | 0.392
65 | NAGDYYDLYGG [PTPN11_Y63_T59A] | 16.3
66 | LPEVSYVKAID [GLRA1_Y307_K304E] | 0.095

biological target: EPHB2 (UniProt P29323); test: as above
Sequence (P29323 whole entry, looked up): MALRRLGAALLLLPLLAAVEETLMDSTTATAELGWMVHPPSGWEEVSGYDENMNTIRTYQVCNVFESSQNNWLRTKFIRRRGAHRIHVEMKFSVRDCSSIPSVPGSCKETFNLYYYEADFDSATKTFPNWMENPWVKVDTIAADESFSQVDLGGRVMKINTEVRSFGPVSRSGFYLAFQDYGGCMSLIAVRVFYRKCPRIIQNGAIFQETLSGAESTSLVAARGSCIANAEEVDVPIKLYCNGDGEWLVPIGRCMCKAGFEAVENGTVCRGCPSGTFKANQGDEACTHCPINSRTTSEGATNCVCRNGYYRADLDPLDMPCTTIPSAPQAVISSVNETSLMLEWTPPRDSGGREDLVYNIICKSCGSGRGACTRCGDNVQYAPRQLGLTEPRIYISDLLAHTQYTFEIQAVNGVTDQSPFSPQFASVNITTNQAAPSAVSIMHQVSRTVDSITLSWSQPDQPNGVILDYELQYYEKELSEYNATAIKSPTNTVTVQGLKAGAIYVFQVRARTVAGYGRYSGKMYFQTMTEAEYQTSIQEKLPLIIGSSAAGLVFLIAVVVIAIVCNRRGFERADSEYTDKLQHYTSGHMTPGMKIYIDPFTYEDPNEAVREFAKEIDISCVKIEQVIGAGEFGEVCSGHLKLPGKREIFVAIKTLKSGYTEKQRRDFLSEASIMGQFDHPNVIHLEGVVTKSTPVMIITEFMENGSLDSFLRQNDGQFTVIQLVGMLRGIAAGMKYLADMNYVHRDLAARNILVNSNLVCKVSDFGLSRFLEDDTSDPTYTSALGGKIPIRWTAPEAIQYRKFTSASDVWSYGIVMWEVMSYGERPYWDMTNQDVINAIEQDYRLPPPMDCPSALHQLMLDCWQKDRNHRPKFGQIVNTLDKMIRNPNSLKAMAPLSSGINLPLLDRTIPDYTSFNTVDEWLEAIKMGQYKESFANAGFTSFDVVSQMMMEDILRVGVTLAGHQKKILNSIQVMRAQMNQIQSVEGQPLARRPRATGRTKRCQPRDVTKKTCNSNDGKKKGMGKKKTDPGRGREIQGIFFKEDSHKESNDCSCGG

Row | Sequence | phosphorylation enrichment
67 | AFLGEYIPTVF [RAC2_Y32_P29L] | 0.499
68 | ESMLRYEVFGG [STOX1_Y607_YF] | 0.471
69 | QLQQAYQEAFE [YWHAZ_Y149_S145L] | 1.69
70 | RSFLSYYTSHV [NEFL_Y442_P440L] | 0.761
71 | CKLFQYFLDHL [ATRX_Y1849_YF] | 0.605
72 | MFNPMYALFRT [HUWE1_Y4078] | 0.693
73 | QMIETYFDFRL [NSMF_Y506] | 1.36
74 | KNKNRCKNILP [PTPN11_Y279_Y279C] | 0.503
75 | KNDSNYVVKGN [KIT_Y823] | 0.318
76 | VVRSLYEDLED [VHL_Y185_I180V] | 0.984
77 | EVKAQYEDIAQ [KRT1_Y358] | 0.539
78 | DRPASYLEKVR [KRT13_Y118_L115P] | 0.247
79 | YAFQLYDLDRD [CHP2_Y123] | 0.765
80 | TTANRYLKVSD [MYOM2_Y871] | 0.432
81 | NQNIGYKLGHR [KCNN3_Y268] | 0.303
82 | LEIETYRRLRD [KRT12_Y429_L433R] | 0.559

Row | Sequence | phosphorylation enrichment
83 | CPEARYNRSPI [PTAR1_Y42] | 0.458
84 | GAVGHYVLAER [HFE_Y342_M339V] | 0.415
85 | EKMWSYTKSAE [GRIA3_Y705_M706T] | 0.487
86 | SEDANYKRVSC [TTC3_Y1288] | 0.55
87 | GHNDVYILEHV [GRIN2A_Y1423_S1425L] | 0.518
88 | MTRDIYRASYY [ALK_Y1278_A1274T] | 0.579
89 | VDSIEYEVASQ [SLC7A7_Y7_T5I] | 0.618
90 | GEVLVYAEDPA [FLNA_Y319_V320A] | 0.53
91 | RARIRYAQEHD [NSD1_Y1987] | 1.19
92 | FQKDVYNIPPS [NEDD9_Y177_D178N_YF] | 0.411
93 | SFPHEYGSQEG [RBM10_Y48_R46H_YF] | 0.602
94 | LVVFEYMRHGD [NTRK1_Y591_M587V] | 0.556
95 | KNRDVSSSDFF [USP24_Y2134_Y2134S_YF] | 0.393
96 | GEETDYTPVWC [UROD_Y30] | 0.791
97 | YSDPSYVKQME [CDC5L_Y464] | 0.57
98 | NAGDYYDLYGG [PTPN11_Y63_T59A] | 15.9

biological target: FGFR1 (UniProt P11362); test: as above
Sequence (P11362 whole entry, looked up): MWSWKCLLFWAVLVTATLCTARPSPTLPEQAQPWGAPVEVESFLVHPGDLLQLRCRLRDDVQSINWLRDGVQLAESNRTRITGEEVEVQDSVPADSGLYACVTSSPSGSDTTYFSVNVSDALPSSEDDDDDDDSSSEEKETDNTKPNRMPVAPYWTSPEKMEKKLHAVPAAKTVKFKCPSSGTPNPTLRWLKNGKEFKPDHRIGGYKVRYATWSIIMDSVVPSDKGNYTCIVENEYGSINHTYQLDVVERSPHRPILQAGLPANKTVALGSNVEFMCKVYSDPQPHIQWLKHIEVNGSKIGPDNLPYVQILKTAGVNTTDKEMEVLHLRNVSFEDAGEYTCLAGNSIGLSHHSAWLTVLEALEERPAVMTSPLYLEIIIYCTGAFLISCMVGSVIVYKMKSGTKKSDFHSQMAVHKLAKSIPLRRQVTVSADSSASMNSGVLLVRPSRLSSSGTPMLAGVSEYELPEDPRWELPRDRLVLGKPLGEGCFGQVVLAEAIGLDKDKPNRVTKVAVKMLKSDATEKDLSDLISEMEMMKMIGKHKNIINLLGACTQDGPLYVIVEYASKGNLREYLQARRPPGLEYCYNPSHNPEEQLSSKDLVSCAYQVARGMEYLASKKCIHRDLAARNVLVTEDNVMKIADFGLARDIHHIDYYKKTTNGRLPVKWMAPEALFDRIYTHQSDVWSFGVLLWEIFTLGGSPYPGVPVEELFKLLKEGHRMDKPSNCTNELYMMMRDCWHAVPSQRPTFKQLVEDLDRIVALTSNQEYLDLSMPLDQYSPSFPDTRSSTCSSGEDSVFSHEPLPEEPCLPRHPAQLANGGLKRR

Row | Sequence | phosphorylation enrichment
99 | AFLGEYIPTVF [RAC2_Y32_P29L] | 0.826
100 | ESMLRYEVFGG [STOX1_Y607_YF] | 0.415
101 | QLQQAYQEAFE [YWHAZ_Y149_S145L] | 1.76
102 | RSFLSYYTSHV [NEFL_Y442_P440L] | 0.575
103 | CKLFQYFLDHL [ATRX_Y1849_YF] | 0.647
104 | MFNPMYALFRT [HUWE1_Y4078] | 0.545
105 | QMIETYFDFRL [NSMF_Y506] | 7.65
106 | KNKNRCKNILP [PTPN11_Y279_Y279C] | 0.617
107 | KNDSNYVVKGN [KIT_Y823] | 0.55
108 | VVRSLYEDLED [VHL_Y185_I180V] | 0.556
109 | EVKAQYEDIAQ [KRT1_Y358] | 0.593
110 | DRPASYLEKVR [KRT13_Y118_L115P] | 0.3
111 | YAFQLYDLDRD [CHP2_Y123] | 1.89
112 | TTANRYLKVSD [MYOM2_Y871] | 0.453
113 | NQNIGYKLGHR [KCNN3_Y268] | 0.339
114 | LEIETYRRLRD [KRT12_Y429_L433R] | 0.645

Row | Sequence | phosphorylation enrichment
115 | CPEARYNRSPI [PTAR1_Y42] | 0.419
116 | GAVGHYVLAER [HFE_Y342_M339V] | 0.449
117 | EKMWSYTKSAE [GRIA3_Y705_M706T] | 0.419
118 | SEDANYKRVSC [TTC3_Y1288] | 0.418
119 | GHNDVYILEHV [GRIN2A_Y1423_S1425L] | 0.43
120 | MTRDIYRASYY [ALK_Y1278_A1274T] | 0.844
121 | VDSIEYEVASQ [SLC7A7_Y7_T5I] | 0.451
122 | GEVLVYAEDPA [FLNA_Y319_V320A] | 0.496
123 | RARIRYAQEHD [NSD1_Y1987] | 0.689
124 | FQKDVYNIPPS [NEDD9_Y177_D178N_YF] | 0.47
125 | SFPHEYGSQEG [RBM10_Y48_R46H_YF] | 0.565
126 | LVVFEYMRHGD [NTRK1_Y591_M587V] | 0.486
127 | KNRDVSSSDFF [USP24_Y2134_Y2134S_YF] | 0.365
128 | GEETDYTPVWC [UROD_Y30] | 0.655
129 | YSDPSYVKQME [CDC5L_Y464] | 0.985
130 | NAGDYYDLYGG [PTPN11_Y63_T59A] | 19.3

biological target: FGFR3 (UniProt P22607); test: as above
Sequence (P22607 whole entry, looked up): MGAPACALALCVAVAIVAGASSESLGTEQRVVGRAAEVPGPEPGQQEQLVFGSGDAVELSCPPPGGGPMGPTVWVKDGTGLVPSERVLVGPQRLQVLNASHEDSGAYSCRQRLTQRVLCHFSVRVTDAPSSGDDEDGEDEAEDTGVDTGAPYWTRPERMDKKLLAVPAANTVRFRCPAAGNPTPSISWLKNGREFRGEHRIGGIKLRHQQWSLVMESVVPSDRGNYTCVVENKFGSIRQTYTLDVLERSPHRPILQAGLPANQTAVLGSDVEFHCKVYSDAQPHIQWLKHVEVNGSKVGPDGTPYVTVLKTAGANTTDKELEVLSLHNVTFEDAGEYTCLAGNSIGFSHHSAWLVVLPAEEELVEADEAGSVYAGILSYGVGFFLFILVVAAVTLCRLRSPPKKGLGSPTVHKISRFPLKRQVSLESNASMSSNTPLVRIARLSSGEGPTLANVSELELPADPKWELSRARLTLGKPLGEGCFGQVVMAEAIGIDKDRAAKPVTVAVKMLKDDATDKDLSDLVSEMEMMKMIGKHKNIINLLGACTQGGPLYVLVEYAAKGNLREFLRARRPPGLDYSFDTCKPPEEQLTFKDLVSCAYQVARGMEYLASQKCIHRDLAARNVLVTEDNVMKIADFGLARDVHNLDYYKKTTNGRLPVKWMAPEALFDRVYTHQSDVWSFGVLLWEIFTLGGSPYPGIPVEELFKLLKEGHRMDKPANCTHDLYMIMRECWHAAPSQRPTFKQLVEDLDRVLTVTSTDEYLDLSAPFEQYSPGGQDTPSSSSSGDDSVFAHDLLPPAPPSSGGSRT

Row | Sequence | phosphorylation enrichment
131 | AFLGEYIPTVF [RAC2_Y32_P29L] | 0.967
132 | ESMLRYEVFGG [STOX1_Y607_YF] | 0.641
